This data set concerns CdpR (Pseudomonas aeruginosa PAO1). Kind of data set: EMSA. Background: In EMSA bound probe runs differently from free probe, usually more slowly.

In turn, pqsH-p (pqsH-cdpR intergenic region) came in with a K half of 500 nM.

The record behind these values is paper PMC4847859.
